Measurements reported in the supplement of paper PMC7877785.
± gives the uncertainty stated by the source.

Experiment: self-splicing fitness, log relative to wild type (ln ratio); higher = more splicing; Tetrahymena group I intron in knt gene, E. coli kanamycin selection, DiMSum; sequences stand for … in CUCUCU…GGAGGGAAAAGUUAUCAGGCAUGCACCUGGUAGCUAGUCUUUAAACCAAUAGAUUGCAUCGGUUUAAAAGGCAAGACCGUCAAAUUGCGGGAAAGGGGUCAACAGCCGUUCAGUACCAAGUCUCAGGGGAAACUUUGAGAUGGCCUUGCAAAGGGUAUGGUAAUAAGCUGACGGACAUGGUCCUAACCACGCAGCCAAGUCCUAAGUCAACAGAUCUUCUGUUGAUAUGGAUGCAGUUCACAGACUAAAUGUCGGUCGGGGAAGAUGUAUUCUUCUCAUAAGAUAUAGUCGGACCUCUCCUUAAUGGGAGCUAGCGGAUGAAGUGAUGCAACACUGGAGCCGCUGGGAACUAAUUUGUAUGCGAAAGUAUAUUGAUUAGUUUUGGAGUACUCGUGGUCG
Outline: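 Fitness was computed with DiMSum as the error-weighted combination of replicate fold changes, kanamycin versus none, each normalised to wild type. The library randomised all eight intron nucleotides of the P1ex region, with the intron placed in the knt kanamycin-resistance gene on pET-22b(+) in E. coli BL21(DE3). Six replicate transformations were grown overnight at 37°C or 30°C on LB agar with or without 25 μg/mL kanamycin, plus 100 μg/mL carbenicillin, 50 μM IPTG and 0.2% rhamnose. Pooled colonies were amplicon-sequenced on an Illumina HiSeq 2500.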

UCAAAGCAAUAUUACGUCGU
self-splicing fitness (ln) (30 °C): -2.23 ± 0.11
self-splicing fitness (ln) (37 °C): -1.28 ± 0.11

UGCUAGCAAUAUUACGUCUA
self-splicing fitness (ln) (30 °C): -1.21 ± 0.11
self-splicing fitness (ln) (37 °C): -0.84 ± 0.1

GCAUAGCAAUAUUACGUACG
self-splicing fitness (ln) (30 °C): -1.42 ± 0.076
self-splicing fitness (ln) (37 °C): -1.14 ± 0.09

AUGAAGCAAUAUUACGUUCU
self-splicing fitness (ln) (30 °C): -0.34 ± 0.076
self-splicing fitness (ln) (37 °C): 0.201 ± 0.092

GAGAAGCAAUAUUACGCUGG
self-splicing fitness (ln) (30 °C): -2.87 ± 0.41
self-splicing fitness (ln) (37 °C): -1.64 ± 0.41

AGCAAGCAAUAUUACGAGCA
self-splicing fitness (ln) (30 °C): -0.456 ± 0.14
self-splicing fitness (ln) (37 °C): -0.101 ± 0.14

GCUAAGCAAUAUUACGGAAG
self-splicing fitness (ln) (30 °C): -1.5 ± 0.071
self-splicing fitness (ln) (37 °C): -0.648 ± 0.088

ACCAAGCAAUAUUACGGUAG
self-splicing fitness (ln) (30 °C): -4.33 ± 0.16
self-splicing fitness (ln) (37 °C): -2.5 ± 0.14

UUUAAGCAAUAUUACGUGUC
self-splicing fitness (ln) (30 °C): -3.99 ± 0.33
self-splicing fitness (ln) (37 °C): -2.65 ± 0.25

GCUCAGCAAUAUUACGGGGG
self-splicing fitness (ln) (30 °C): -3.18 ± 0.17
self-splicing fitness (ln) (37 °C): -1.92 ± 0.16

CUUAAGCAAUAUUACGUCGG
self-splicing fitness (ln) (30 °C): -1.66 ± 0.097
self-splicing fitness (ln) (37 °C): -0.424 ± 0.11

AUGGAGCAAUAUUACGCCUA
self-splicing fitness (ln) (30 °C): -0.868 ± 0.14
self-splicing fitness (ln) (37 °C): -0.981 ± 0.18

GGAGAGCAAUAUUACGGAAG
self-splicing fitness (ln) (30 °C): -2.47 ± 0.32
self-splicing fitness (ln) (37 °C): -0.843 ± 0.41

CGCAAGCAAUAUUACGAAAU
self-splicing fitness (ln) (30 °C): -3.48 ± 0.21
self-splicing fitness (ln) (37 °C): -1.86 ± 0.18

CACGAGCAAUAUUACGCAUC
self-splicing fitness (ln) (30 °C): -1.74 ± 0.34

AACUAGCAAUAUUACGCGCA
self-splicing fitness (ln) (30 °C): -0.47 ± 0.099
self-splicing fitness (ln) (37 °C): 0.116 ± 0.12

CGGUAGCAAUAUUACGUAGU
self-splicing fitness (ln) (30 °C): -2.59 ± 0.13
self-splicing fitness (ln) (37 °C): -1.34 ± 0.16

UCCUAGCAAUAUUACGAAUA
self-splicing fitness (ln) (30 °C): -2.81 ± 0.26
self-splicing fitness (ln) (37 °C): -1.98 ± 0.34

UAUGAGCAAUAUUACGAAGU
self-splicing fitness (ln) (30 °C): -4.08 ± 0.42
self-splicing fitness (ln) (37 °C): -1.93 ± 0.23

CCAUAGCAAUAUUACGGCCG
self-splicing fitness (ln) (30 °C): -0.548 ± 0.098
self-splicing fitness (ln) (37 °C): -0.739 ± 0.12

AAAAAGCAAUAUUACGAAUA
self-splicing fitness (ln) (30 °C): -1.42 ± 0.1
self-splicing fitness (ln) (37 °C): -0.458 ± 0.095

CCAGAGCAAUAUUACGAAUA
self-splicing fitness (ln) (30 °C): -2.84 ± 0.23
self-splicing fitness (ln) (37 °C): -3.27 ± 0.42

GCCCAGCAAUAUUACGGAAG
self-splicing fitness (ln) (30 °C): -2.76 ± 0.13
self-splicing fitness (ln) (37 °C): -1.4 ± 0.11

AUUGAGCAAUAUUACGCCGC
self-splicing fitness (ln) (30 °C): -2.67 ± 0.49

AGUAAGCAAUAUUACGCGCC
self-splicing fitness (ln) (30 °C): -0.457 ± 0.22
self-splicing fitness (ln) (37 °C): 0.671 ± 0.29

UUGUAGCAAUAUUACGCAUC
self-splicing fitness (ln) (30 °C): -3.41 ± 0.34
self-splicing fitness (ln) (37 °C): -3.19 ± 0.43

UUGCAGCAAUAUUACGUCCC
self-splicing fitness (ln) (37 °C): -1.44 ± 0.37

GCGAAGCAAUAUUACGAGGG
self-splicing fitness (ln) (30 °C): -3.77 ± 0.23
self-splicing fitness (ln) (37 °C): -3.27 ± 0.35

UUCUAGCAAUAUUACGUUGG
self-splicing fitness (ln) (30 °C): -2.65 ± 0.24

CUCUAGCAAUAUUACGCUAC
self-splicing fitness (ln) (30 °C): -3.65 ± 0.47
self-splicing fitness (ln) (37 °C): -1.14 ± 0.37

UGUCAGCAAUAUUACGAAGU
self-splicing fitness (ln) (30 °C): -4.02 ± 0.46
self-splicing fitness (ln) (37 °C): -1.93 ± 0.24

AAGGAGCAAUAUUACGUUCU
self-splicing fitness (ln) (30 °C): -2.47 ± 0.14
self-splicing fitness (ln) (37 °C): -1.09 ± 0.12

UAACAGCAAUAUUACGCGGG
self-splicing fitness (ln) (30 °C): -2.44 ± 0.1
self-splicing fitness (ln) (37 °C): -1.18 ± 0.078

GUAAAGCAAUAUUACGUGAA
self-splicing fitness (ln) (30 °C): -1.96 ± 0.1
self-splicing fitness (ln) (37 °C): -1.39 ± 0.12

AGACAGCAAUAUUACGAGAG
self-splicing fitness (ln) (30 °C): -4.6 ± 0.34
self-splicing fitness (ln) (37 °C): -2.12 ± 0.17

AGAAAGCAAUAUUACGUUGU
self-splicing fitness (ln) (30 °C): -4.11 ± 0.14
self-splicing fitness (ln) (37 °C): -1.88 ± 0.099

CUGGAGCAAUAUUACGAAGG
self-splicing fitness (ln) (30 °C): -3.43 ± 0.28
self-splicing fitness (ln) (37 °C): -1.97 ± 0.27

GCUCAGCAAUAUUACGCUUA
self-splicing fitness (ln) (30 °C): -1.4 ± 0.054
self-splicing fitness (ln) (37 °C): -0.165 ± 0.06

UUGUAGCAAUAUUACGGCCG
self-splicing fitness (ln) (30 °C): -0.356 ± 0.17
self-splicing fitness (ln) (37 °C): -0.462 ± 0.22
